Assay results taken from patent US5162203A, “Methods of measuring isozymes and isozyme classes of alcohol dehydrogenase” (President and Fellows of Harvard College, priority 1989, dated 1992).
Values joined by “and” are separate entries in the source; they are usually repeats but may differ in a detail not shown here. Equal values may be shown once.

What was measured:
[1] = Specific activity of purified ADH isozymes in ethanol oxidation assay; assay type: biochemical
Text: The isozymes used as primary standards were homogeneous based on SDS-polyacrylamide, urea-polyacrylamide and starch gel electrophoresis as described above. […] Using ethanol as substrate in a conventional ADH assay as described in part 8 of this Example, the specific activity of each purified ADH isozyme was established by monitoring NADH production by the change in absorbance at 340 nm on a Cary 219 spectrophotometer calibrated with potassium chromate absorbance standards (Fisher Chem. Co., Medford, MA) The activity of the purified ADH Class I isozymes were also assayed according to methods of the present invention (Examples 1 (part 8), 2 and 4).
A modification of the procedure of Ditlow et al., 1984, Biochemistry 23:6363-68, was used to purify Class II ADH from human livers proceeding from the preparation of Class I isozymes as described in subpart (a) above. The effluent of the CapGapp column obtained during the loading and binding of Class I was concentrated to about 200 ml in an Amicon concentrator with a PM.30 membrane and dialyzed 16 hours against 10 liters of 10 mM potassium phosphate, 0.1 mM DTT, pH 7.4 containing 10 μM octanal. The sample was applied to a column (3×5 cm) of agarose-AMP affinity resin at a flow rate of 0.5 ml/minute followed by washing of the column with 200 ml of the dialysis buffer. The bound enzyme was eluted with 150 ml of the dialysis buffer with a gradient of NADH from 0 to 66 μg/ml.
Standard assays for ethanol oxidation activity (Dalziel, 1957, Acta Chem Scand 11:1706-23) were carried out on a Cary 219 spectrophotometer interfaced with an Apple IIe microcomputer, using software provided by Varian Associates. The reaction mixture contained 2.5 mM NAD^+ in 0.1M glycine-NaOH buffer. pH 10.0, and 33 mM or 0.2M ethanol for Class I and Class II ADH, respectively.

[2] = biological target: ADH in human serum (Class II) (Homo sapiens, UniProt P08319); test: Fluorometric measurement of serum ADH activity with substrate IIA; assay type: biochemical; settings: Class II, substrate IIA
Method: All reaction mixtures (3 ml total volume) were prepared directly in 1 cm pathlength, 4 ml fluorometric cuvettes by adding 150 μl of the 300 μM substrate solution (e.g substrate IA or IIA) 100 μl of the 1 mM NADH solution (prepared as in part 5 above) and 2.69 ml of assay buffer (0.1M phosphate, pH 7.6). After thermal equilibration (25° C.) for 5 minutes, 60 μl of isozyme sample (either serum or purified ADH isozymes) was added to the cuvette.
The linear increase of fluorescence was then recorded for 1-10 minutes, until 0.03-1 μM of substrate was consumed. Larger substrate consumption was not found to be desirable (described in subpart (c) below). […] The added product fluorescence intensity was then measured Fluorescence measurements were optimized for samples with low activity (<1 nM/minute). […] Rates measured in the presence of the 0.2 mM ADH inhibitors. […]
The rates of aldehyde reduction, determined as initial velocities (V) and expressed in units of nM/minute, were calculated according to: [formula] where the quantity in parentheses is the slope of the linear fluorescence increase calculated from the quantities Ft and FO, the fluorescence at time t and at the beginning of the reaction, respectively. Cst is the concentration of the product used as a standard added to the cuvette after the initial rate had been measured and Fst is the fluorescence intensity of the added product […]

[3] = Effect of storage conditions and time on ADH activity in serum; assay type: physicochemical, human
Method: Fresh serum samples were obtained from the Clinical Chemistry Laboratory at Brigham and Women's Hospital, Boston, Mass. All serum measurements reported herein were performed within 5 hours of phlebotomy unless otherwise indicated On storage there is considerable variation in the ADH activity of serum samples from the same and different patients. FIGS. 5A and 5B show the effect of storage at 4° C. (closed circles) and room temperature (closed squares) in a typical serum sample, using substrate IA (FIG. 5A) and substrate IIA (FIG. 5B) as measured by the four-assay procedure of Example 4.

[4] = Reconstitution of purified ADH in inactive diluted human serum, substrate IIA; assay type: biochemical; settings: Class II, 50-fold diluted serum, listed as II
Method: The ADH isozymes employed were electrophoretically homogeneous with symmetrical HPLC elution profiles and had the highest constant specific activity. Their activity was established both by the standard A340 assay using ethanol and using substrates IA and IIA under conditions described herein, but in the absence of serum.
After the residual background reaction was recorded, a purified ADH isozyme prepared as described in Example 1 was then added and the rate measured as described in part 8 of Example 1. All measurements were made in triplicate.

| Molecule | specific activity ([1]; ethanol oxidation, pH 10) | limit of detection as isozyme concentration [2] | Average Activity Retained ([3]; 4 °C, 2 days) | Average Activity Retained ([3]; 23 °C, 1 day) | Average Activity Retained ([3]; 23 °C, 2 days) | stability of activity in serum ([3]; -70° C.) | Average Activity Retained ([3]; -70 °C, 30 days) | half-life of ADH activity in sera ([3]; room temperature) | specific activity ([1]; purified Class II ADH) | Recovery [4] |
| --- | --- | --- | --- | --- | --- | --- | --- | --- | --- | --- |
| β1 β1: Class I human ADH isozyme, β1 homodimer (protein, UniProt P00325 2-375, looked up, homodimer, Class I human ADH isozyme, β1 homodimer) All-trans-retinol …: STAGKVIKCKAAVLWEVKKPFSIEDVEVAPPKAYEVRIKMVAVGICHTDDHVVSGNLVTPLPVILGHEAAGIVESVGEGVTTVKPGDKVIPLFTPQCGKCRVCKNPESNYCLKNDLGNPRGTLQDGTRRFTCRGKPIHHFLGTSTFSQYTVVDENAVAKIDAASPLEKVCLIGCGFSTGYGSAVNVAKVTPGSTCAVFGLGGVGLSAVMGCKAAGAARIIAVDINKDKFAKAKELGATECINPQDYKKPIQEVLKEMTDGGVDFSFEVIGRLDTMMASLLCCHEACGTSVIVGVPPASQNLSINPMLLLTGRTWKGAVYGGFKSKEGIPKLVADFMAKKFSLDALITHVLPFEKINEGFDLLHSGKSIRTVLTF | 0.42 U/mg |  |  |  |  |  |  |  |  |  |
| γ1γ1: Class I human ADH isozyme, γ1 homodimer (protein, UniProt P00326 2-375, looked up, homodimer, Class I human ADH isozyme, γ1 homodimer) Alcohol dehydrogenase 1C: STAGKVIKCKAAVLWELKKPFSIEEVEVAPPKAHEVRIKMVAAGICRSDEHVVSGNLVTPLPVILGHEAAGIVESVGEGVTTVKPGDKVIPLFTPQCGKCRICKNPESNYCLKNDLGNPRGTLQDGTRRFTCSGKPIHHFVGVSTFSQYTVVDENAVAKIDAASPLEKVCLIGCGFSTGYGSAVKVAKVTPGSTCAVFGLGGVGLSVVMGCKAAGAARIIAVDINKDKFAKAKELGATECINPQDYKKPIQEVLKEMTDGGVDFSFEVIGRLDTMMASLLCCHEACGTSVIVGVPPDSQNLSINPMLLLTGRTWKGAIFGGFKSKESVPKLVADFMAKKFSLDALITNILPFEKINEGFDLLRSGKSIRTVLTF | 4.4 U/mg |  |  |  |  |  |  |  |  |  |
| Class II ADH: human liver Class II alcohol dehydrogenase (protein, UniProt P08319 1-380, looked up) All-trans-retinol …: MGTKGKVIKCKAAIAWEAGKPLCIEEVEVAPPKAHEVRIQIIATSLCHTDATVIDSKFEGLAFPVIVGHEAAGIVESIGPGVTNVKPGDKVIPLYAPLCRKCKFCLSPLTNLCGKISNLKSPASDQQLMEDKTSRFTCKGKPVYHFFGTSTFSQYTVVSDINLAKIDDDANLERVCLLGCGFSTGYGAAINNAKVTPGSTCAVFGLGGVGLSAVMGCKAAGASRIIGIDINSEKFVKAKALGATDCLNPRDLHKPIQEVIIELTKGGVDFALDCAGGSETMKAALDCTTAGWGSCTFIGVAAGSKGLTIFPEELIIGRTINGTFFGGWKSVDSIPKLVTDYKNKKFNLDALVTHTLPFDKISEAFDLMNQGKSVRTILIF |  | 0.17 nM | 55% | 66% | 51% | at least one month | 100% | a few hours to >3 days | 1.5 U/mg | 82.0% and 83.4% and 85.9% and 81.3% |
